Results on one protein are retold here after paper PMC10472834 (Cell metabolism, 2021).

This series deals with the molecule itself. Put plainly: cross-linking.

B1: ME2-Flag catalytic-inactive mutant (CM), stably expressed in MOLM14 cells (natural protein)
chain: not shown
With B1, the “stoichiometry N” value was determined as 2.
